pEC50: −log10 of the molar value.
Key:
[1] = biological target: human CD94 expressed on cells (human primary NK cells in PBMCs; HEK cells expressing human CD94) (human) (UniProt Q13241); experiment: flow cytometry, PE HLA-E tetramer on NK cells of PBMCs pre-incubated with antibody; competitor HLA-E tetramer
[2] = biological target: human CD94 expressed on cells (human primary NK cells in PBMCs; HEK cells expressing human CD94) (human) (UniProt Q13241); experiment: cell-based or functional assay
[3] = biological target: human CD94 expressed on cells (human primary NK cells in PBMCs; HEK cells expressing human CD94) (human) (UniProt Q13241); experiment: HLA-E tetramer blocking assay, flow cytometry on CD3-CD56+ NK cells in healthy donor PBMCs; antibody at one saturating concentration, blocked ligand PE-labelled HLA-E tetramer; percent blocking = 100-((percent HLA-E positive with antibody)/(percent HLA-E positive with isotype)*100)
[4] = biological target: human CD94 expressed on cells (human primary NK cells in PBMCs; HEK cells expressing human CD94) (human) (UniProt Q13241); experiment: flow cytometry titration on CD3-CD56+ NK cells in healthy donor PBMCs; 'Affinity on Human NK Cells'; the filing derives these affinities as EC50 of titration curves (the 2.6nM of 18H3 is labelled EC50 in FIG. 1)
[5] = biological target: human CD94 expressed on cells (human primary NK cells in PBMCs; HEK cells expressing human CD94) (human) (UniProt Q13241); experiment: competition assay, flow cytometry on CD3-CD56+ NK cells in healthy donor PBMCs; HP-3B1 titrated in the presence of Human IgG1 control (no competitor)
[6] = biological target: human CD94 expressed on cells (human primary NK cells in PBMCs; HEK cells expressing human CD94) (human) (UniProt Q13241); experiment: as above; remark: listed apart in the source
[7] = biological target: human CD94 expressed on cells (human primary NK cells in PBMCs; HEK cells expressing human CD94) (human) (UniProt Q13241); experiment: competition assay, flow cytometry on CD3-CD56+ NK cells in healthy donor PBMCs; HP-3B1 titrated in the presence of Mouse IgG1 control (no competitor)

Sequence of human CD94 expressed on cells (human primary NK cells in PBMCs; HEK cells expressing human CD94) (human) (Q13241 whole entry): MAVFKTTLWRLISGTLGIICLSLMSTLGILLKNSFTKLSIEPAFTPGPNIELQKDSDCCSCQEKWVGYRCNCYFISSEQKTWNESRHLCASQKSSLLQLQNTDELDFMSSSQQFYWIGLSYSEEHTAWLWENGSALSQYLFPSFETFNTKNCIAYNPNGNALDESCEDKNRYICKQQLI

Substance	percent HLA-E blocking [1]	percent decrease in MFI (antibody internalization assay), comparing 0.5 hours to 24 hours at 37° C. [2]	HLA-E Blocking [3]	pEC50 [4]	EC50 (read off the curve) [5]	EC50 (read off the curve) [6]	EC50 (read off the curve) [7]
commercial anti-CD94 antibody clone HP-3D9	> 40%	54%	99%	10.15	–	–	–
commercial anti-CD94 antibody clone 131412	> 40%	–	40%	7.96	–	–	–
commercial anti-CD94 antibody clone DX22	> 40%	56%	99%	9.82	–	–	–
commercial anti-CD94 antibody clone HP-3B1	> 40%	–	99.8%	8.52	2 nM	3 nM	2 nM
commercial anti-CD94 antibody clone 12K45	> 40%	–	47%	8.15	–	–	–
